Test results reported in publication PMC3658177.

Test system: GST-YTHDF2 (human)
Assay: EMSA
Details: one N6-methyladenosine

Substance: m6A-RNA
- Kd: 465 nM
